The values below come from the DeepSol protein solubility set.

The nature of this series: soluble on expression in E. coli; label from the status in PepcDB or PDB records.
Regarding “MAKGTIKTNTPPPAPVVGPPGKSAKYRVKHTITVMSGKGGVGKSTVAVNLAVSLAKKGLKVGLIDADINGPDDPKLLGVEDLKLYADDDGIIPAETKYGVKVVSMGFLLPSQDTPVIWRGSLMHKAIQQFLEDVSWKDTDYVVLDMPPGTGDVALSVAQLVPESNGVVIVVTPQDVALLDAKKAINFARQLKLPIFGIIENMSGFVCPHCGNVTYIFKEGGGEKSAKEYNVPFLGKIPLVPEIADNGDKGIPAVEINDTIKSIFNDIADKILKQILGENVKTEALEHHHHHH”, the “soluble on expression in E. coli” value is “not soluble”. For the sequence “MAKGTKYVSKVPDEHGFIEWSTEENLIWQELFTRQIACIKDKACDEYHEGLAKLNLPTDRIPQLDEVSKVLKVSTGWECYPVPALIGFGEFFRLLSEKKFPVATFIRSREEMDYLQEPDIFHEIFGHCPLLTNSSFANYTEAYGKMGLNATKEQRVFLARLYWFTIEFGLLDTPKGLRIYGGGVLSSPGETDYAMNNTDVDRKPFDILDVLRTPYRIDIMQPIYYMLTKVSDLDEIRKFEVDDIMELVAQAEALGLHEAKFPVKKASLEHHHHHH”, the “soluble on expression in E. coli” value was “soluble”. Next, “MAKLLYVQTSGIDTPERLYAPFVLAMTAKAMGDDAIIYFVIKGVTVVKKDNAEKIKMGNFPPLSELMKQARESGVEMMVCDRSSELLGIDKGEIVDGVKIVGAATLNQLVLEADGVLYF”: “not soluble”; “MAKLVTENISKRFKNQDVLKHINITLENNEVYGLLGINGAGKTTLMKIICGILQQDSGEIKLDNRPMTRNDLHKVGSLIETPATYNHLSAQDNLKIVCLNESVDFSEINSVLSLVNLNVDKKKKVKDFSLGMKQRLGIAMALIKKPEILVLDEPSNGLDPYGIQELRELLKLLTEQGTSIIISSHILSEIQVLADHIGIIHEGELKYQQRNNKDENLEEIFFKITKGDYK”: “not soluble”. Next, “MAKLYFYYSAMNAGKTTTLLQSAHNYRERGMRTLILTPKLDHRAGSGVVASRIGLRADGRIFERDTELQQLVERDIHNDGALHCVLVDEAQFLSRAQVWQLSEVVDRLRIPVLCYGLRTDFRGELFEGSQFLLAWADELEEIKTICHSGSKATMTVRVDAHGHAVQDGPQVEIGGNERYVSVSRAEFKKIMRGEGRIDPLQIALPLPVALEHHHHHH”: “not soluble”; “MAKNAPRFVCQACGAVYPRWMGRCEACGEWNSIAEEAPAEALPKGQTGGRGGQRLSFVSLEGVGAPPPRLLTGIPELDRVAGGGLVAGSALLIGGDPGIGKSTLLLQAVAGLARGGARSVYISGEEAIDQVRLRALRLGLEKAPVDLAAATSVRDIVATLDSGEPPDVVVIDSIQTMYLDTLDSAPGTVAQVRAGSHELIRLAKRRGFVLFLVGHVTKEGQMAGPRVMEHMVDAVIYFEGERGHPFRILRAVKNRFGATDEIGVFEMSDAGLSEVPNPSALFLAERRGNVTGSCVFAGMEGTRPMLVEIQALVGPSAPGSARRAVVGWDGGRLAMVMAVLETRCGLALGGNDVYLNVAGGLRIGEPAADLAVAAALVSSFSGVPVPPDMVVFGEIGLSGEIRAVAHGDTRLKEAAKLGFDQALMPARPRDSGKRGGPGVKEGLRMREIGHLQDLVALLAPPENAGQGQRLEHHHHHH”: “soluble”. In the case of “MAKNIQAIRGMNDYLPGETAIWQRIEGTLKNVLGSYGYSEIRLPIVEQTPLFKRAIGEVTDVVEKEMYTFEDRNGDSLTLRPEGTAGCVRAGIEHGLLYNQEQRLWYIGPMFRHERPQKGRYRQFHQLGCEVFGLQGPDIDAELIMLTARWWRALGISEHVTLELNSIGSLEARANYRDALVAFLEQHKEKLDEDCKRRMYTNPLRVLDSKNPEVQALLNDAPALGDYLDEESREHFAGLCKLLESAGIAYTVNQRLVRGLDYYNRTVFEWVTNSLGSQGTVCAGGRYDGLVEQLGGRATPAVGFAMGLERLVLLVQAVNPEFKADPVVDIYLVASGADTQSAAMALAERLRDELPGVKLMTNHGGGNFKKQFARADKWGARVAVVLGESEVANGTAVVKDLRSGEQTAVAQDSVAAHLRTLLG”, the “soluble on expression in E. coli” value is recorded as “soluble”. Turning to “MAKNSRSKTQFENMKYEIAKEVGVNLKQGYNGDLTAREAGKIGGNIVKKVFQSYTGNSYPSERLGDTSR”, the “soluble on expression in E. coli” value is reported as “not soluble”. Turning to “MAKPVVIGSRSFRTQSSALDHYKALLHRYQDGQRIADPADHTDLVALIERFDPVLDAVGEPAKGAGQIAHFERRLNTGIGWSTPGFWVVRQDGTETDFSYIDAVKGRPKGRSQDFYNACRQAVALDLVLAKKQAFAQYGDDQGRVECELTGKMVTIDDAHLDHAWPYFSHMVSGFRAARGWSRDIPDGIVSTPADGQTTATFLDSAVTEAFRAFHHDQAVLRVLSREANLQTASSARRPKVARPVRLA”, the “soluble on expression in E. coli” value was “not soluble”. With “MAKTPVLLDRWGKPVKRAVLTEEISAATLGSVRSPITGYPADGLNPVRLASILREADAGDPVRYLELAETIEERDLHYLGVLGTRRRSVSQLDITVEAASDDPRDVEIADMIRDWLTRDELSDELFHMLDCIGKGYSFTEIIWDTSEGQWRPARLEWRDPRWFRFDRAALTTPLMLGPHGEELELTPFKFIFAEVKAKSGIALRSGLARAAAWAWMFKAFTQRDWAIFTQTYGQPLRLGRYGPGASEDDKATLFRAVANIAGDCAAIIPESMAIDFVETKSVGATADLYKQRADWLDQQISKAVLGQTATTDAVTGGLGSGKEHRQVQEDIERADAKALSGILNRDLIRPWVDLEYGPQARYPRLKIARPEPEDLKAMAEALAALVPIGLRVSQKKTRDRFGFDEPENDADVMGGTPAAAAVAAPPGADRPIKRFSGVFKGGEPPARPETALQAEAAPAALPASDDPAALLADRLAADAAPAMGAMIERVETMLAAAGSLAEFREMLLAGFPGIDAGDLATLMAQAMMAAHAGGRAAAEDAGA”, the “soluble on expression in E. coli” value is listed as “not soluble”. With “MAKYHDIASPAYILEEDLLRRNLSLIASVADRTGVEIILAFKAYALWRTFPIIREYVPHSTASSVWEARLAFEEMGAPAHTFSPAYTPEEFPEILRYSSHVTFNSLSQYYLLSPMVKNVGVSLGLRINPEYSAVETALYNPCAPGSRFGVSASELGDTLPEGIEGLHFHTLCESTGYELEKTLKIIEDRFASVLEQA”, the “soluble on expression in E. coli” value is recorded as “not soluble”. “MALEYVVTKRVFGFDKDKNEKYVAKSVRSGRVSFSKMCGKVSRLCGVHRKVVDLVVSGLVDMMAEDIDDGKSVQMGEFGIFSPTIRAKSADDEKEVSSKSIVQRKILFYPGKIFKTTLDDMSITRRAELDTDYTDGSSNNGSGSEKPNPGGDGGKDDEEAPDPTV”: the “soluble on expression in E. coli” value is “not soluble”. In the case of “MALFFRTRDRPLRPGDPYPLGSNWIEDDDGVNFSLFSENAEKVELLLYSLTNQKYPKEIIEVKNKTGDIWHVFVPGLRPGQLYAYRVYGPYKPELGLRFNPNKVLIDPYAKAINGSVIWNDAVFGYKIGDQNQDLTYDERDSGEYVPKSVVINPYFEWDDEDFIKGKKVPLKDTVIYEVHVKGFTKLRLDLPENIRGTYEGLASEQMISYLKDLGITTVELMPVFHFIDQRFLTDKGLTNYWGYDPINFFSPECRYSSTGCLGGQVLSFKKMVNELHNAGIEVIIDVVYNHTAEGNHLGPTLSFRGIDNTAYYMLQPDNKRYYLDFTGTGNTLNLSHPRVIQMVLDSLRYWVTEMHVDGFRFDLAAALARELYSVNMLNTFFIALQQDPILSQVKLIAEPWDVGQGGYQVGNFPYQWAEWNGKYRDSIRRFWRGEALPYSEIANRLLGSPDIYLGNNKTPFASINYVTSHDGFTLEDLVSYNQKHNEANGFNNQDGMNENYSWNCGAEGPTNDQNVVICREKQKRNFMITLLVSQGTPMILGGDELSRTQRGNNNAFCQDNEITWFDWNLDERKSKFLEFVKKMIQFYRAHPAFRRERYFQGKKLFGMPLKDVTFYTLEGREVDEKTWSSPTQLVIFVLEGSVMDEINMYGERIADDSFLIILNANPNNVKVKFPKGKWELVISSYLREIKPEERIIEGEKELEIEGRTALVYRRIEL”, the “soluble on expression in E. coli” value was “soluble”.

As for “MALILTFLGKSGVARTKIAIAAAKLLASQGKRVLLAGLAEPVLPLLLEQTLTPDPQQIAPNLEVVQFQSSVLLERNWEEVKKLEAQYLRTPIIKEVYGQELVVLPGMDSALALNAIREYDASGKYDAIVYDGTGDAFTLRMLGLPESLSWYVRRFRQLFVNSDLGKTIAESPLIQPLISSFFNVNWTADNFAQPTNQVNNFLDKGKEALADPKRVAAFLVTTADPLEVVSVRYLWGSAQQIGLTIGGVIQVSSQTEGDLSAEFTPLSVTVVPDVTKGDWQPLIDALPNFVEQAEQAPKPITIDTHNRQVRLFLPGFDKKQVKLTQYGPEVTVEAGDQRRNIFLPPALSGRPITGAKFQNNYLIISFLEHHHHHH”, the “soluble on expression in E. coli” value is recorded as “soluble”. Consider “MALKNNTLWTGPKPEANCIIEYGKQNPDSKLTLILVKNGGIVNGYVTLMGASDYVNTLFKNKNVSINVELYFDATGHILPDSSSLKTDLELKYKQTADFSARGFMPSTTAYPFVLPNAGTHNENYIFGQCYYKASDGALFPLEVTVMLNKRLPDSRTSYVMTFLWSLNAGLAPETTQATLITSPFTFSYIREDD”, for which the “soluble on expression in E. coli” value is “soluble”.

Regarding “MALKTAVHEKIMNDVVLAVKKNAEWKVLIVDQLSMRMVSACCKMHEIMSEGITLVEDINRRREPLPLLEAVYLITPTEESVKCLMADFQNPDNPQYRGAHIFFTEACPEELFKELCKSTTARFIKTLKEINIAFLPYESQIFSLDSPDTFQVYYNPSRAQGGIPNKERCAEQIATLCATLGEYPSVRYRSDFDENASFAQLVQQKLDAYRADDPTMGEGPQKDRSQLLILDRGFDPISPLLHELTFQAMAYDLLPIENDVYKYVNTGGNEVPEKEVLLDEKDDLWVEMRHQHIAVVSQNVTKKLKQFADEKRMGTAADKAGIKDLSQMLKKMPQYQKELSKYSTHLHLAEDCMKQYQQHVDKLCKVEQDLAMGTDADGEKIRDHMRNIVPILLDQKISAYDKIRIILLYIIHKGGISEENLAKLVQHAHIPAEEKWIINDMQNLGVPIIQDGGRRKIPQPYHTHNRKERQADHTYQMSRWTPYMKDIMEAAVEDKLDTRHYPFLNGGGPRPSCQQPVSVRYGHWHKDKGQASYKSGPRLIIFVVGGISYSEMRSAYEVTQTAKNNWEVILGSTHILTPEGLLRDLRKISNP”, the “soluble on expression in E. coli” value is listed as “soluble”.

Consider “MALTFTQAVSKLTSKFPHLNLVEFNGVRYPTVIVCPIHGRVTCSTFKSMLDSKSGCPKCASYGVNSHKIPEDTIDKLSKNTVLEDTVTGETLTFPSRASAARSLGINPAAITDRIKGRVHTETLLAGRYKVHICTK”, for which the “soluble on expression in E. coli” value is listed as “not soluble”. “MAMLGDQSFAAVKRDVPVDPDRQANDYVRCVADAVTREVGGSWEVVLFRQDSPNAFALPGGKIGVHTGMLRIARNQDQLATVLAHEVAHVLSRHANERLSQQVAVQQGLNAMQALADPSSSSGKTLMGLLGLGAQYGILMPYSRTQESEADLLGLDLMARAGFDPRQSIELWNNMANSGGGQPIEFLSTHPSHATRMQDLAKRMPRALDLQRQAAAQGHRPQCDGIRAGGGLEHHHHHH”: the “soluble on expression in E. coli” value was “not soluble”. “MAMNNILGLFAQSPLKPLQKHSVKVTECSELLEPFFEATFKQDWDEAIKVREQIIDLERRADALKREIRLKLPRGLFLPVERTDLLELVTQLDKLANYSRDISGRIIGRQLVIPEAMQATFRKFLSRSLDSTRQVRKVLAELDKLLETGFRGRELKFVNNMILELDQIEDDTDQIQIVLRRTLRGLEQEFNPIDVIFLYKCIERVSILADQAQRVGSRIELMLAKALEHHHHHH”: the “soluble on expression in E. coli” value is “soluble”. The value for “MAMQFVMRLAREFRRADWRRMLSDMSATELGEWGDYFRMQSFSDVWMDAQFASLKALIVRMVSGSSDAAVADFSLLPEENGIPERTDEELMHLGEGISGGVRYGPDSQPGHLEHHHHHH” was “not soluble”; that for “MANDIVPQDENGAGMPVEFDASTITGEEKAAILLLSLNEQDAAGIIRHLEPKQVQRVGSAMARAKDLSQEKVSAVHRTFLEDIQKYTNIGMGSEDFMRNALVAALGEDKANNLVDQILLGTGSKGLDSLKWM” was “not soluble”.
